Data from the domain aggregation screens of Martell et al. (2025).

Test: soluble fraction after stress (log2 fold change); higher = more stays soluble; pooled small domains, quantitative proteomics
Details: stress: 50 degC
Outline: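 Custom libraries of small protein domains were pooled and measured in a high-throughput format, with quantitative proteomics as the read-out. Each library was stressed at 50°C. The value is the log2 fold change in the amount of each protein that stays soluble after stress, used as a measure of aggregation propensity; higher values mean more of the protein stays soluble.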

| Sequence | soluble fraction (log2) |
| --- | --- |
| HMEYFDDEELDRYKGRTSDSFTDDEAEEFREVMMTMHPEEVKAWNRSLILRDVAMPDQIKDDYIMLAG | -0.0408 |
| HMPASDPNEKQILRFLTEHQVITRKETQALLDVSQSTAGRVLKAMVDNGQIKQLGGSRNTRYELPM | -0.183 |
| HMTVSGNIAGDYKDYLPQKTDVINGMTVTYRMVDDAVYLASWKHAGQNHVFLFNDPVSVERAREMI | -0.577 |
| HMSNTIFGINGPVVTVASKDFSMQEMVYVGNERLVGEVISIDDDLTTIQVYEVTTGLKPGEPVVGTGSAM | -0.531 |
| HMLRRNQVQSQVIPRENGSYVVELQLRDDVDSILRLELTAATEAMARDLADRFRQDPEGVYTRLLSALY | -0.789 |
| HMASIEPLKTSIRIIWYINGEKDSETLLNTPPTAANKANAQKIADMVEQQIQMGIFNRDAVFPSSPKRQ | -1.87 |
| HMSTVTGLINYLSSGLIKGVGEATARKLVDHFGLDVLDIIQFNPQRLLEVDGIGEARAEMIASSFSEQK | -0.399 |
| HMVLSPAQVRRALMVSGLFTEARVARQLGVPMDLKQILRIILRNTPPQSAMARELESAIDEIESRNAMRD | -1.62 |
| HMDDPLSQLTPREREVLELMASGASNQGIADALVITVRAVEKYVSSIFGKLGLPSTGSESRRVLAVLTFLR | -0.635 |
| HMDYYASVDQVWRELGLAGPARRALIDDGLFKLSDLRKTSLAAVKELHGMGPNAIRILTTEMKKADLSFR | -2.25 |
| HMLLELINLQVKILENEELKIIGKVIDLENEKNNLLVIELLKDQKKVLVPFVKEIVPLIDIKNNFIMINPP | -0.897 |
| HMTALSIGTVVRFTGDRHYISSTGDTGYPASPGLAKITSINPGSKHPYHLIHIDNTSNVYGWVNKQDIIT | 0.16 |
| HMGHLSNENAGRLLDRVLNDKIHAIMLGHLSKENNMPELAHEAVRMEITMGESRYKADDFPIYVA | 0.11 |
| HMEKLLTTRQSQIFELAKRKGYWNIPREISITQLAQLTGSSKSTISVMLHAIESKIVDTFYDEI | -3.2 |
| HMPYPSPADLARMDELIAWVKDEGRLPRDRSGQRSERSMARWLAARRREAAEGTLDPAYRDGLAQVPGWR | -0.368 |
| HMEEFAGYINGQPYYGPTHQHRGVKMVGAEHTQRPHPLVWDSVAKSLDNYDNRFQWVNGNLLQVV | 0.0306 |
| HMYSDQRMEIFLEHLPDFIEQLSHKHVTRQMVWEDYRMIYPDGYGKSQFFFHLAQNLKAQKP | -3.3 |
| HMKNVSVKMILSPESLGEIQVDLVFSKGKDLEIMLRPETAEVAKLIQSNSASLREQLSLEHKGPLSLNVS | -0.626 |
| HMAVKTEHGRIWKALPEGQDGYREDVPMFTSKSMYDGSAGIGIFLIRLYEATSDERWLKEAEEAAAHII | 0.351 |

| Sequence | soluble fraction (log2) |
| --- | --- |
| HMDLEGLSNKELVTLRGQIQDDLNKWATEVGIIDPKNRPDDYNRALQSLEDAKRQRSAIDAKL | 0.0869 |
| HMAREFPGTIIKRGSRGPDVRWIQQHIGVKLVDGVFGRGTERAVKQFQSRRRLKADGIVGRQTWAAIHN | -0.999 |
| HMDDLTTASIKQQLKALIDEENKNKPLSDQKLTDALKAQGIDISRRTVAKYREAMNIPGSSKRKRF | 0.0936 |
| HMLSYNINEESKSSIMNVNVLKNNFASIDVEKLQNIIFTTFKKYNYYLNDFSSMNLLLHLLIIVDREL | 0.337 |
| HMQENVIIYPNPTKSVIYLSEKVEFILYNILGEIIFIGDNNKIDLNSFDNGVYIFESGNVRTQIIK | 0.0489 |
| HMIAAVIAQVANTNERIILEKRYLSFKSWDEIAVEMRISPRWAYTLHERALKAVDQVLSKQNNE | -4.07 |
| HMKKMEEEFALFNAWVDRRLGIPLAAYKENQMQRRILTIMENSGAKTLREYQQLIEGDEGVRAAFLAHIT | -1.1 |
| HMKNKIYGTIVSSTSGEETVYKVFQVDSSKDITYLFRPDMIRLAHENNQALEFNEETGRGKRIEMSDLPK | 0.0213 |
| HMDTQITPNKAKEIALAHAGVTEAAANFKKIKLDNKNGKSIYEIEFIANKSRYEFIVDAKNGSIIKFEK | 0.0656 |
| HMDLRIKEIMSERNVTSAWLAEKVGISKVAVSNIVTGKSSPSLDNLLKIADALNVSITTLIG | -0.824 |
| HMNSSHRLIGLDPGLRVTGWGIVDAIGTKLVHVANGSVKSQQNAPLATRLLELENGLEEVFDNWQPDFA | 0.148 |
| HMTTAASIGRLVRDARKQRGLTQHELASLLSTSQSAIHRIESGNQNLSLEMINRIAQALESPLIVPGG | -0.163 |
| HMKLTEGETIFLNESDTADWKKIPGIGSVYASRIVKYRNLLGGFVSVNQLREVYGIDDELFAKIYPYI | -0.0044 |
| HMQPHLSADEEHLLKILGSDTMHIDALVKRSTLETSNALAALAFLEMKGLVKNIGNMHYIRTYR | -0.139 |
| HMGADRLVGMTAIVTATIDPNDTDRKGRVQVEGEVWSALSDGRLIITEGSKVRITEMHGTRVRVEAI | -0.0351 |
| HMASELQQVQALLESQRYNEALILIETTIGKGASESTELLFARADVFASSGRHDEAEQAYREL | -0.0838 |
| HMLSADLLDKIQRIDSLEQQGKYAQAEKEARALLSDPSITPSERASVQNILSSIARKKAAQAQ | 0.11 |
| HMTVSIDSLFDKFEDLQEQGLGDKTEEGQELRGLIRAFIEQEHLSVRITRSTSNQELLDMIEEAMQ | -1.45 |
| HMDRWTPLIVAVLIEGSHRFGELRSAIGGITPKVLTETLRSMERDGLVTRDQVPGVPPRVDYALTPLG | -0.334 |
